Where no end group is shown, it is not given here.
Key:
PCSK9-WT protein = target: T1, PCSK9-WT protein (Homo sapiens, UniProt Q8NBP7); experiment: Cellular diI-LDL uptake in HuH7 cells with PCSK9-WT; format: cell-based; settings: HuH7, 1.0 μg/ml PCSK9-WT, 100 uM peptide (FIG. 2)
T1 construct: V5
Procedure: (§1) HuH7 cells were incubated in a 96-well plate for a total of 20 h in the absence (Cnt) or presence of 1.0 μg/ml PCSK9-WT protein alone (WT) or mixed with 100 uM of various SRX peptides. After 16 h, dil-LDL (5 ug/ml) was added to the incubation mixtures. After 4 h, fluorescence was measured (Ex: 520 nm/Em: 575 nm; cutoff: 550 nm). Dil-LDL uptake is calculated as RFU corrected for the number of cells.
(§2) LDL internalization was measured by uptake of a fluorescently tagged LDL molecule (diI-LDL) in the absence of exogenous PCSK9 (Cnt), in the presence of exogenous PCSK9 (normal PCSK9=WT, D374Y mutant PCSK9=DY), or in the presence of PCSK9 and a tested peptide (indicated as SRX##, or SRX if a single peptide results is shown in a graph).
(§3) Cells, such as HepG2, HuH7, FL83B or a cell line transfected with a short-hairpin PCSK9 knockdown sequence such as HepG2/shPCSK9, HuH7/shPCSK9, FL83B/shPCSK9, were seeded at 2×10^4 cells/well in a 96-well plate and cultured at 37 degC in RPMI+10% FBS. After approximately 24 hours, the cell media was aspirated off and replaced with RPMI+3-5 mg/mL LPDS (Lipoprotein Deficient Serum, Millipore) media for further experimentation. Benjannet et al., “Effects of the prosegment and pH on the activity of PCSK9: evidence for additional processing events” J Biol Chem. 285(52): 40965-40978 (2010).
(§4) Peptide activity was assessed by culturing cells with: i) no SRX peptide/PCSK9 protein complex (control, Cnt); ii) PCSK9 protein; and iii) SRX peptide/PCSK9 complex. Various permutations of these experimental conditions were also used, including: i) the addition of wild type PCSK9 (WT); ii) a mutant PCSK9 (e.g., D374Y mutant PCSK9, DY); iii) various SRX peptides and/or PCSK9 at the same concentration and/or combinations; iv) various SRX peptides and/or PCSK9 at different concentrations and/or combinations; v) the use of different cells, as mentioned above, with or without a transfected short-hairpin sequence; vi) a pre-incubation of the PCSK9 and SRX peptide (e.g., 1, hour, 2 hours, 3 hours, 4 hours etc.); vii) various temperatures including, but not limited to, body temperature (e.g., 37° C.), supraphysiologic temperature (e.g., 39° C.); and viii) with/without agitation (e.g., shaker or gentle periodic vortexing).
(§5) Cells were cultured using one of the combinations of conditions described in the preceding paragraph for 16 hours. After 16 hours, a quantity of diI-LDL (Low density lipoprotein coupled with 1,1′-dioctadecyl-3,3,3′,3′-tetramethylindocarbocyanine perchlorate) needed to bring the media concentration to 5 ug/mL of diI-LDL was added to the culture well and cells continued to be cultured under these new conditions for 4 additional hours. At the end of the 4-hour incubation period (20 total hours of cell culture), the cellular uptake was halted with the addition of 4% formaldehyde in 10 uM Hoechst 33342 in a solvent such as deionized autoclaved water or PBS, and specimens were incubated at 20° C. for 20 minutes. Cell specimens were rinsed twice with PBS and then fluorescence measured with excitation at 360 nm and emission detected at 460 nm to measure DNA content. Cell specimens were then be incubated with a 0.1% SDS in a 0.1 N NaOH solution while being shaken for 10 minutes. Fluorescence of the diI-LDL in the specimens were quantified using excitation at 530 nm and resulting emission at 580 nm.
Fluorescence measurements of diI-LDLR were normalized to estimated cell numbers, determined from the Hoechst fluorescence. Data was analyzed for the different experimental conditions and reported as percentage relative fluorescence units (RFU) of the Cnt specimen. Percent inhibition was calculated as the difference in RFU of a peptide exposed specimen to the RFU of PCSK9-no peptide, divided by the RFU difference in PCSK9-no peptide to RFU of Cnt specimen, also expressed as [(SRX:RFU)−(PCSK9-no peptide:RFU)]/[(PCSK9-no peptide:RFU)−(Cnt:RFU)]×100.

D374Y PCSK9 (DY) = D374Y PCSK9 (DY) (Homo sapiens, UniProt Q8NBP7, D374Y); experiment: Cellular diI-LDL uptake in FL-83B cells with D374Y PCSK9; format: cell-based, mouse; settings: FL83B, D374Y 0.6 ug/ml, pre-incubated 3 hrs at 37 C, dose dependent manner (FIG. 7)
Sequence of D374Y PCSK9 (DY) (Q8NBP7 153-692 D374Y): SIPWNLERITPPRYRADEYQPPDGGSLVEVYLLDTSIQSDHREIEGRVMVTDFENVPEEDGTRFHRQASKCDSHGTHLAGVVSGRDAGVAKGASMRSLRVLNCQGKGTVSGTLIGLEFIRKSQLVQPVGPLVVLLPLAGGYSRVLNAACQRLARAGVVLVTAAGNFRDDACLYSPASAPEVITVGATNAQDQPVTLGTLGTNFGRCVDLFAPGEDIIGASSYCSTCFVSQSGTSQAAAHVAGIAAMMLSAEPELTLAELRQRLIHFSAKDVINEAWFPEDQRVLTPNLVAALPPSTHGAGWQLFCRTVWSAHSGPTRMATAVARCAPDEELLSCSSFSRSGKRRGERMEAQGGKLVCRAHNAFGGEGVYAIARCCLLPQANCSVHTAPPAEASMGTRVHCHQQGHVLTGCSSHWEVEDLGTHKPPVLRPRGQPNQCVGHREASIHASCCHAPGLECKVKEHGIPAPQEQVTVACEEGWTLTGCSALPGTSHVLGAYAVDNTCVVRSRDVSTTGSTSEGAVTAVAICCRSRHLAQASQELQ
Procedure: After 16 h, dil-LDL (5 ug/ml) was added to the incubation mixtures. After 4 h, fluorescence was measured (Ex: 520 nm/Em: 575 nm; cutoff: 550 nm). Dil-LDL uptake is calculated as RFU corrected for the number of cells. The PCSK9 and −/+SRX55 [SEQ ID NO: 2] mixtures were pre-incubated for 3 hrs at 37 C prior to addition to the cells.
as §2, with “graph). […]” for “graph).”
Peptide activity was assessed by culturing cells with: i) no SRX peptide/PCSK9 protein complex (control, Cnt); ii) PCSK9 protein; and iii) SRX peptide/PCSK9 complex. […]
Cells were cultured using one of the combinations of conditions described in the preceding paragraph for 16 hours. After 16 hours, a quantity of diI-LDL (Low density lipoprotein coupled with 1,1′-dioctadecyl-3,3,3′,3′-tetramethylindocarbocyanine perchlorate) needed to bring the media concentration to 5 ug/mL of diI-LDL was added to the culture well and cells continued to be cultured under these new conditions for 4 additional hours. […] Fluorescence of the diI-LDL in the specimens were quantified using excitation at 530 nm and resulting emission at 580 nm. […]

PCSK9-D374Y protein = PCSK9-D374Y protein (Homo sapiens, UniProt Q8NBP7, D374Y); experiment: Cellular diI-LDL uptake in HuH7 cells with PCSK9-D374Y; format: cell-based
Sequence of PCSK9-D374Y protein (Q8NBP7 153-692 D374Y): as above
Procedure: as §1, with “0.5” for “1.0”, “PCSK9-D374Y” for “PCSK9-WT”, “(DY)” for “(WT)”
as §1, with “0.5” for “1.0”, “PCSK9 GOF-D374Y” for “PCSK9-WT”, “(DY)” for “(WT)”, “increasing concentrations” for “100 uM”
as §2, §3, §4, §5
Fluorescence measurements of diI-LDLR were normalized to estimated cell numbers, determined from the Hoechst fluorescence. […]

T1 sequence (Q8NBP7 153-692): as the sequence (Q8NBP7 153-692 D374Y) above, with Y222D counted along it

LDL internalization (dil-LDL % uptake vs Cnt) (PCSK9-WT protein): positively modulated (increased)
LDL internalization (dil-LDL % uptake vs Cnt) (D374Y PCSK9 (DY)): positively modulated (increased)
LDL internalization (dil-LDL % uptake vs Cnt) (PCSK9-D374Y protein; HuH7, 0.5 μg/ml PCSK9-D374Y, 100 uM peptide (FIG. 3)): positively modulated (increased)
LDL internalization (dil-LDL % uptake vs Cnt) (PCSK9-D374Y protein; HuH7, 0.5 μg/ml PCSK9 GOF-D374Y, increasing concentrations of peptide (FIG. 4)): positively modulated (increased)
percent inhibition (dil-LDL uptake) (PCSK9-D374Y protein; HuH7, PCSK9 GOF-D374Y, peptide at 11.1 uM (FIG. 4 bottom panel)): ~0%
Substance: Val-Tyr-Val-Arg-Phe-Trp (VYVRFW; not fully specified (C-terminus); printed as Val-Tyr-Val-Arg-Phe-Trp) [Compound 1]
dose dependence of positive modulation of LDL internalization (PCSK9-D374Y protein; HuH7, PCSK9 GOF-D374Y (FIG. 4)): positive modulation in a dose dependent manner
